From publication PMC4072508, “Genome-Wide Prediction and Validation of Peptides That Bind Human Prosurvival Bcl-2 Proteins” (PLoS Computational Biology, 2014)

T1: Bcl-w, Q92843
T1 chain: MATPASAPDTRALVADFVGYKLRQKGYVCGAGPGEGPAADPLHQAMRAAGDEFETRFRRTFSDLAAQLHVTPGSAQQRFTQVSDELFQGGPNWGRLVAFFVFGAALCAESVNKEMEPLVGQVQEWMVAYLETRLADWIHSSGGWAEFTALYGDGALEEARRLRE

T2: Mcl-1, Q07820
T2 chain: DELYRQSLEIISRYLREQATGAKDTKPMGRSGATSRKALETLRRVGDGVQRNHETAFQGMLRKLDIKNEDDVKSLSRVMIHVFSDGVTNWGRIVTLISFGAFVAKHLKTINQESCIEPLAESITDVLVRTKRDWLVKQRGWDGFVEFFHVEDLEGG

T3: Bfl-1, Q16548
T3 chain: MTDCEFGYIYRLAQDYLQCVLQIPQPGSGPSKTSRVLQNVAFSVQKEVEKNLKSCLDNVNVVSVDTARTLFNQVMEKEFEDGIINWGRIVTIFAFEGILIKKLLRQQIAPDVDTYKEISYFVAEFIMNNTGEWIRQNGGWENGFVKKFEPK

T4: Bcl-2, P10415
T4 chain: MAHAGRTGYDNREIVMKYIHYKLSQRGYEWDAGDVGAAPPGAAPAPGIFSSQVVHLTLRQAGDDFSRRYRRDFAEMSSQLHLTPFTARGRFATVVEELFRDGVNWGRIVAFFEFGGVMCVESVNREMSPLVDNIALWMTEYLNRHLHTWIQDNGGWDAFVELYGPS


Molecular target: Bcl-2, P10415
Experiment: peptide SPOT array, c-Myc-tagged receptor at 1 uM or 100 nM, anti-c-Myc-Cy3
Target sequence in this assay (P10415 1-217): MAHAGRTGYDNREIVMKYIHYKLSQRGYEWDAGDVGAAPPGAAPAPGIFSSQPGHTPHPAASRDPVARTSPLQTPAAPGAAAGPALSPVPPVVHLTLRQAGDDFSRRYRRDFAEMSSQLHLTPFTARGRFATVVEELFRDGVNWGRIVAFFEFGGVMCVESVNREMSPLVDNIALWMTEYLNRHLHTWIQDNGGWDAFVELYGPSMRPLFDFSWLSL

In order of rising SPOT signal as a fraction of Bim BH3's signal on the same receptor and array:
1. FMEKLDNGALLCQLAETMQEKFKESM [GAS2]  0.01
2. ADLYEEAAENLHQLSDKLPAPGRAMV [MTBP]  0.01
3. SVGGRGISSKLDSLADELKFVPIIGI [SACS]  0.01
4. VAGYRESAAFLLRSADELENLILQQN [NOL4]  0.01
5. DLTDKLVSFYLETYGAELTANVLRDM [PYCARD]  0.01
6. SATHDEAVQVLKKTGKEVVLEVKYMK [SNTA1]  0.02
7. KYDPSKYCHNLKKIGEDFSNTIPISS [NOL8]  0.02
8. LRGSGAWGLLLRRVGDDVLVHLLARC [TERT]  0.03
9. KEFLALASSSLLKIGQETDKTTTRNR [NCKAP1]  0.03
10. GDRAGGRSWCLRRVGMSAGWLLLEDG [RNF8]  0.04

Molecular target: Bcl-xL, Q07817
Experiment: as above

Sequence of Bcl-xL, Q07817 (Q07817 1-209): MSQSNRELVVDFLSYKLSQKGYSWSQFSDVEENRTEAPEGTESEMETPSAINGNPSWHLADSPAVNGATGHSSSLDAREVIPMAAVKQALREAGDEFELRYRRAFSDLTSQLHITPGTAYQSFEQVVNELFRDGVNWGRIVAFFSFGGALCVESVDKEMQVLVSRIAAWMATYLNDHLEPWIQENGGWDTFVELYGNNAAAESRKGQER

In order of rising SPOT signal as a fraction of Bim BH3's signal on the same receptor and array:
1. ADLYEEAAENLHQLSDKLPAPGRAMV [MTBP]  0.02
2. FMEKLDNGALLCQLAETMQEKFKESM [GAS2]  0.03
3. SVGGRGISSKLDSLADELKFVPIIGI [SACS]  0.03
4. VAGYRESAAFLLRSADELENLILQQN [NOL4]  0.04
5. DLTDKLVSFYLETYGAELTANVLRDM [PYCARD]  0.04
6. GDRAGGRSWCLRRVGMSAGWLLLEDG [RNF8]  0.12
7. SATHDEAVQVLKKTGKEVVLEVKYMK [SNTA1]  0.15
8. KEFLALASSSLLKIGQETDKTTTRNR [NCKAP1]  0.26
9. LRGSGAWGLLLRRVGDDVLVHLLARC [TERT]  0.32
10. KYDPSKYCHNLKKIGEDFSNTIPISS [NOL8]  0.57

Molecular target: T1, Bcl-w, Q92843
Experiment: as above

In order of falling SPOT signal as a fraction of Bim BH3's signal on the same receptor and array:
1. KEFLALASSSLLKIGQETDKTTTRNR [NCKAP1]  0.26
2. LRGSGAWGLLLRRVGDDVLVHLLARC [TERT]  0.12
3. SATHDEAVQVLKKTGKEVVLEVKYMK [SNTA1]  0.08
4. GDRAGGRSWCLRRVGMSAGWLLLEDG [RNF8]  0.07
5. KYDPSKYCHNLKKIGEDFSNTIPISS [NOL8]  0.05
6. VAGYRESAAFLLRSADELENLILQQN [NOL4]  0.03
7. DLTDKLVSFYLETYGAELTANVLRDM [PYCARD]  0.03
8. FMEKLDNGALLCQLAETMQEKFKESM [GAS2]  0.02
9. ADLYEEAAENLHQLSDKLPAPGRAMV [MTBP]  0.02
10. SVGGRGISSKLDSLADELKFVPIIGI [SACS]  0.02

Molecular target: T2, Mcl-1, Q07820
Experiment: as above

In order of rising SPOT signal as a fraction of Bim BH3's signal on the same receptor and array:
1. FMEKLDNGALLCQLAETMQEKFKESM [GAS2]  0.02
2. ADLYEEAAENLHQLSDKLPAPGRAMV [MTBP]  0.02
3. SVGGRGISSKLDSLADELKFVPIIGI [SACS]  0.02
4. KYDPSKYCHNLKKIGEDFSNTIPISS [NOL8]  0.03
5. VAGYRESAAFLLRSADELENLILQQN [NOL4]  0.04
6. GDRAGGRSWCLRRVGMSAGWLLLEDG [RNF8]  0.06
7. SATHDEAVQVLKKTGKEVVLEVKYMK [SNTA1]  0.06
8. DLTDKLVSFYLETYGAELTANVLRDM [PYCARD]  0.07
9. KEFLALASSSLLKIGQETDKTTTRNR [NCKAP1]  0.12
10. LRGSGAWGLLLRRVGDDVLVHLLARC [TERT]  0.14

Molecular target: T3, Bfl-1, Q16548
Experiment: as above

In order of falling SPOT signal as a fraction of Bim BH3's signal on the same receptor and array:
1. KEFLALASSSLLKIGQETDKTTTRNR [NCKAP1]  0.23
2. LRGSGAWGLLLRRVGDDVLVHLLARC [TERT]  0.19
3. GDRAGGRSWCLRRVGMSAGWLLLEDG [RNF8]  0.13
4. SATHDEAVQVLKKTGKEVVLEVKYMK [SNTA1]  0.05
5. KYDPSKYCHNLKKIGEDFSNTIPISS [NOL8]  0.05
6. FMEKLDNGALLCQLAETMQEKFKESM [GAS2]  0.02
7. ADLYEEAAENLHQLSDKLPAPGRAMV [MTBP]  0.02
8. SVGGRGISSKLDSLADELKFVPIIGI [SACS]  0.02
9. VAGYRESAAFLLRSADELENLILQQN [NOL4]  0.02
10. DLTDKLVSFYLETYGAELTANVLRDM [PYCARD]  0.02

Molecular target: T1, Bcl-w, Q92843
Experiment: fluorescence polarisation, direct titration of receptor into 10 nM labelled peptide

LRGSGAWGLLLRRVGDDVLVHLLARC [TERT] gave a Kd of 992 nM.

Molecular target: T4, Bcl-2, P10415
Experiment: as above

LRGSGAWGLLLRRVGDDVLVHLLARC [TERT] gave a Kd of 49 nM.

Molecular target: T2, Mcl-1, Q07820
Experiment: as above

LRGSGAWGLLLRRVGDDVLVHLLARC [TERT] was tested, and the Kd was 69 nM.

Molecular target: T3, Bfl-1, Q16548
Experiment: as above

Binder LRGSGAWGLLLRRVGDDVLVHLLARC [TERT] has a Kd of 99 nM.
